Like-named read-outs stand apart in the source and are kept apart here.
Key:
human C5 = molecular target: T1, human C5 (human, UniProt P01031 19-673; P01031 678-1676); assay: cross reactivity, capture ELISA with anti-C5 capture antibody, anti-His detection
T1 construct: Captured by an anti-C5 antibody in the ELISA

[1] = molecular target: T2, human complement C3b protein (human, UniProt P01024 23-667; P01024 749-1663); assay: cell-based or functional assay
[2] = molecular target: T3, cynomolgus complement C3b protein (cynomolgus monkey (Macaca fascicularis)); assay: cell-based or functional assay
[3] = molecular target: T2, human complement C3b protein; assay: solution equilibrium titration (SET), ECL detection, Fab
[4] = molecular target: T3, cynomolgus complement C3b protein; assay: as above
[5] = molecular target: T2, human complement C3b protein; assay: SPR (Biacore), C3b captured by anti-C3d antibody, Fab as analyte
[6] = molecular target: T3, cynomolgus complement C3b protein; assay: as above
human C3d [7] = molecular target: T4, human C3d (human, UniProt P01024 1002-1303); assay: cross reactivity, ELISA on C3d, anti-His detection
T4 construct: domain: C3d

human C3d [8] = molecular target: T4, human C3d; assay: C3d binding ELISA, IgG titrated from about 0.006 to 100 nM
[9] = molecular target: T2, human complement C3b protein; assay: AlphaScreen bead proximity, C3b-Acceptor beads pre-incubated with antibody, then C3b-Donor beads; inhibition of C3b-C3b dimer formation; unit from the axis [Antibody] nM; value lies above the highest point shown (about 800 nM) [D]
Experimental: (§1) In brief, purified C3b and fP were conjugated to unconjugated acceptor or donor beads (PerkinElmer) using AminoLink Reductant (Pierce) during a 48 h incubation at room temperature. Beads were quenched using Carboxymethoxylamine Hemihydrochloride (Aldrich), and purified by centrifugation at 13000 rpm and three washes with 0.1M TBST. Purified fB(D24G/N260D) and fH were biotinylated during a 30 min incubation with 20-fold molar excess of NHS-Chromogenic-biotin (Pierce) at room temperature, and purified using Zeba 0.5 ml desalting columns (Pierce).
(§2) For C3b-C3b and C3b-fP proximity, Fabs or IgGs respectively were pre-incubated with C3b-Acceptor beads (20 μg/ml) for 60 min at room temperature. C3b-Donor beads or fP-Donor beads (20 μg/ml) were then added, and the plate was incubated overnight at room temperature before reading. For C3b-fB and C3b-fH proximity, antibodies were pre-incubated with C3b-Acceptor beads (20 μg/ml) for 60 minutes at room temperature. Biotinylated fB(D24G/N260D) or fH were then added, and incubated for 60 minutes at room temperature. SA-Donor beads were then added (20 μg/ml) and the plate was incubated overnight at room temperature before reading. Plates were read on the BMG Pherastar (ex=680, em=520-620).

[10] = molecular target: T2, human complement C3b protein; assay: ELISA, C3b or C3 captured by anti-C3d antibody
Experimental: (§3) The C3b antibodies were examined to determine whether they were selective for binding to C3b relative to the C3b precursor C3. Briefly, binding selectivity for C3b was determined by performing the following steps. Coat Maxisorp plate Nunc (442404) with anti-C3d rabbit monoclonal (abcam 17453) at 2 μg/ml in Carbonate Buffer at 100 μl/well. Seal plates and incubate at 4° C. overnight. Aspirate plates and wash 3 times with PBS/0.5% Tween 20. Block plates with Diluent (PBS, 4% BSA Fraction V (Fisher ICN16006980), 0.1% Tween 20 (Sigma P1379), 0.1% Triton X-100 (Sigma P234729)) and incubate for 2 h at room temperature or overnight at 4° C. Then wash plates once with PBS/0.5% Tween 20. Dilute purified C3b (complement technologies A114 lot 21) and C3 (complement technologies A113c) at 1 μg/ml in diluent and plate 100 μl per well. Incubate for 1 h at room temperature. Then wash 3 times with PBS/0.5% Tween 20.
(§4) Dilute Fabs at 100 nM and subsequent dilutions (or higher concentration) in diluent and plate 100 μl per well. Incubate at room temperature for 1 h. Wash plates 3 times with PBS/0.5% Tween 20. Add 100 μl/well of anti-Histidine-HRP monoclonal detection antibody at 1:400 in diluent and incubate at room temperature for 1 h. Then wash 4 times with PBS/0.5% Tween 20. Add 100 μl of TMB substrate (Pierce 34028) and incubate at room temperature for up to 5 min. Add 50 μl of Stop solution (2N Sulfuric Acid) to each well and read plate at 450 nm and correct for plastic reading at 570 nm.

[11] = molecular target: T2, human complement C3b protein; assay: AlphaScreen bead proximity, C3b-Acceptor beads pre-incubated with antibody, then biotinylated fH and SA-Donor beads; blocked ligand: fH [C]
Experimental: as §1, §2

[12] = molecular target: T2, human complement C3b protein; assay: cell-based or functional assay; remark: listed apart in the source
[13] = molecular target: T2, human complement C3b protein; assay: SPR (Biacore T100), C3b captured by anti-C3d antibody, IgG as analyte, 1:1 model
[14] = molecular target: T3, cynomolgus complement C3b protein; assay: as above
[15] = molecular target: T2, human complement C3b protein; assay: AlphaScreen bead proximity, C3b-Acceptor beads pre-incubated with antibody, then biotinylated fB(D24G/N260D) and SA-Donor beads; blocked ligand: fB [A]
Experimental: as §1, §2

[16] = molecular target: T2, human complement C3b protein
[17] = molecular target: T2, human complement C3b protein; assay: AlphaScreen bead proximity, C3b-Acceptor beads pre-incubated with antibody, then C3b-Donor beads; inhibition of C3b-C3b dimer formation; unit from the axis [Antibody] nM [D]
Experimental: as §1, §2

[18] = molecular target: T2, human complement C3b protein; assay: ELISA, C3b captured on coated anti-C3d antibody, antibody titrated (axis: IgG concentration)
Experimental: as §3
as §4, with “Add 100 μl of TMB substrate (Pierce 34028) and incubate at room temperature for up to 5 min.” left out

T4 sequence (P01024 1002-1303 limits assumed): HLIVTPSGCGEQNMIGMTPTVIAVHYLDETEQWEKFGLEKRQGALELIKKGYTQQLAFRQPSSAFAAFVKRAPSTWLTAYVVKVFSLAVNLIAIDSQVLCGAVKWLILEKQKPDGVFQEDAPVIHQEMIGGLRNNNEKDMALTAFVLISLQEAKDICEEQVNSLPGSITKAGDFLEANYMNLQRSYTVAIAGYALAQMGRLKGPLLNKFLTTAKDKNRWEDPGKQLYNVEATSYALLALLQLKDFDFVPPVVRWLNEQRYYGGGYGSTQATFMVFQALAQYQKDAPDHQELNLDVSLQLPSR
T2 sequence (P01024 23-667 P314L, chain 1 of 2): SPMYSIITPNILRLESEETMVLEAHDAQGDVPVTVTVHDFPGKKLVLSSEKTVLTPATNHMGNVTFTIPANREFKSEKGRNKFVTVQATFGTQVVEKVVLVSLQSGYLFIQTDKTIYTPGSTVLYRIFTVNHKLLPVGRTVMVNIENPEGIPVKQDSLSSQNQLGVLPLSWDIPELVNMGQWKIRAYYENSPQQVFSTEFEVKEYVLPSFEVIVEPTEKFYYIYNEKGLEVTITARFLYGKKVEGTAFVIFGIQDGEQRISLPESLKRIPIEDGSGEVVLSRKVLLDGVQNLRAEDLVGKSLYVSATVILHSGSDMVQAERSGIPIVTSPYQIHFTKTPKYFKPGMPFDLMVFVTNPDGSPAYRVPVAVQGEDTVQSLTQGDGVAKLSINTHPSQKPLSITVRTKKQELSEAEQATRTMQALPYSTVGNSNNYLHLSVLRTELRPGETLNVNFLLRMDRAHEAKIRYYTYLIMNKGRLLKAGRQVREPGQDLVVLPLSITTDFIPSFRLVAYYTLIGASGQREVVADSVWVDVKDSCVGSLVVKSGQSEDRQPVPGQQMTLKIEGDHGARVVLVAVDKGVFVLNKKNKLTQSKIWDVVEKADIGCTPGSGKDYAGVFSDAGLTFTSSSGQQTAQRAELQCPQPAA
T2 sequence (P01024 749-1663, chain 2 of 2): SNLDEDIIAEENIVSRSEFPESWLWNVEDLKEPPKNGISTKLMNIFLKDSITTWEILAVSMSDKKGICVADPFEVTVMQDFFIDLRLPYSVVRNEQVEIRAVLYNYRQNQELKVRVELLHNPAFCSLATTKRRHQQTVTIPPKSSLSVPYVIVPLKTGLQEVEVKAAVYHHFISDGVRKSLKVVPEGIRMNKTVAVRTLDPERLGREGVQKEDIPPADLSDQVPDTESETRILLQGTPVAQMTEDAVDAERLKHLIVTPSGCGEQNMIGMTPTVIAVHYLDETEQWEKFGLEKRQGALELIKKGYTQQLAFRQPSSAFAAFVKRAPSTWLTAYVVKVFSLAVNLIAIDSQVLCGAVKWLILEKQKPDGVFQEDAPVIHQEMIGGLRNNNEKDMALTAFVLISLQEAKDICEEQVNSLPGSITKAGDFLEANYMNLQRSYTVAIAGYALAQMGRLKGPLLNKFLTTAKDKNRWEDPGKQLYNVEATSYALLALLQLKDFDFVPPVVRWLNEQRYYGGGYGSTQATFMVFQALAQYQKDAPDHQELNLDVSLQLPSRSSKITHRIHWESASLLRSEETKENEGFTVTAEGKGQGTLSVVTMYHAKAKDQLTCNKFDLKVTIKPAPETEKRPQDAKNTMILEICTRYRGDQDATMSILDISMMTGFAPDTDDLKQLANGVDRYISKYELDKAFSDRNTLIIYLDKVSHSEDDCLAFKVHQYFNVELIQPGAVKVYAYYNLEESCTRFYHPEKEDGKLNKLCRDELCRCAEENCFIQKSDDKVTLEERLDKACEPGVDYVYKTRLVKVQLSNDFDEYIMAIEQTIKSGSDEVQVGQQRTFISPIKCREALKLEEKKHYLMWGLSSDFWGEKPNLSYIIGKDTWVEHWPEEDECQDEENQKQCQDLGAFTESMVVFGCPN
T1 sequence (P01031 19-673 limits assumed, chain 1 of 2): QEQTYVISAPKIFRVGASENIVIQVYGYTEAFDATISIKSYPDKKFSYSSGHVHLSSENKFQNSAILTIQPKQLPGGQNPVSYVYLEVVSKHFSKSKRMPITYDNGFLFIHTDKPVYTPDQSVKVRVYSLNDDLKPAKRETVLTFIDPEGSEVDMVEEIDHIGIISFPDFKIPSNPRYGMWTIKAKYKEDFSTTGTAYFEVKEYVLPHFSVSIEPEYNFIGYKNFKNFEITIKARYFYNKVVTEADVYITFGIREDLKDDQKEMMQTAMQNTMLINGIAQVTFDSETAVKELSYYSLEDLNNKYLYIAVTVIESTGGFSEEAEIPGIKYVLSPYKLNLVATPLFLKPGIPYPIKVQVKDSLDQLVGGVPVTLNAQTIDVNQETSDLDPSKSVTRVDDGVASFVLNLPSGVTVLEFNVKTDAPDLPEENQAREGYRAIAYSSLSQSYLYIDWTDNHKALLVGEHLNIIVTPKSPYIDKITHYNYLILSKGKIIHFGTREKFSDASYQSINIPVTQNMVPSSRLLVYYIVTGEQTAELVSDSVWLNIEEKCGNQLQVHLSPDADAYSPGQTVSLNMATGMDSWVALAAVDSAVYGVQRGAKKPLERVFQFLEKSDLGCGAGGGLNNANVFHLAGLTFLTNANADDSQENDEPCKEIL
T1 sequence (P01031 678-1676 limits assumed, chain 2 of 2): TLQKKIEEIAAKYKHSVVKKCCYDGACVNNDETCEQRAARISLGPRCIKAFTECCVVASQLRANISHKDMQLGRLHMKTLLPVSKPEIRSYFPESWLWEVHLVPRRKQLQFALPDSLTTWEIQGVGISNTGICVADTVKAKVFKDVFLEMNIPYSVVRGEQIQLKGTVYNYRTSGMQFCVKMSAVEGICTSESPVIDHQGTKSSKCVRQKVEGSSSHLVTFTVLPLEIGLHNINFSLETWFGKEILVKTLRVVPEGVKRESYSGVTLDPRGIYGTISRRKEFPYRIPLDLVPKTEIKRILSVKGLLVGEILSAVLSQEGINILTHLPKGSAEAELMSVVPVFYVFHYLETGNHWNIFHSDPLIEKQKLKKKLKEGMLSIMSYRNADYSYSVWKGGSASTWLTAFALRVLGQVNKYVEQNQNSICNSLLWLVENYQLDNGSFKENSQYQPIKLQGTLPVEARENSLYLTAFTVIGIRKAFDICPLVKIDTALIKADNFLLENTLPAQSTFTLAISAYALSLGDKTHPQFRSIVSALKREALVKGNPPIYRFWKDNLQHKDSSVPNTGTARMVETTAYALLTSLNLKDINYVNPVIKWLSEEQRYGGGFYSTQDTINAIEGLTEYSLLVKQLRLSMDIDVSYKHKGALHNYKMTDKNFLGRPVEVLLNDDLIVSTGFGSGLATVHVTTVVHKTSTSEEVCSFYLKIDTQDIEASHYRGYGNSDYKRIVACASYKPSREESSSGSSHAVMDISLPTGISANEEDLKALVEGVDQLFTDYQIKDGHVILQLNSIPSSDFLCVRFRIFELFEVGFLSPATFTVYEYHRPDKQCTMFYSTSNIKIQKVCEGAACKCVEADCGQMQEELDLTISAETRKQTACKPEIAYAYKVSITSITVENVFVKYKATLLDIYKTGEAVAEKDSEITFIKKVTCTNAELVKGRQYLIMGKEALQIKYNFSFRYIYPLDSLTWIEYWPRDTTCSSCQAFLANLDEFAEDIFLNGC

| binding result (human C3d [8]) | IC50 (read off the curve) [11] [nM] | MAC deposition on zymosan, IC50 [12] [nM] | Kd [13] [nM] | koff [13] [s⁻¹] | kon [13] [M⁻¹ s⁻¹] | Kd [14] [nM] | koff [14] [s⁻¹] | kon [14] [M⁻¹ s⁻¹] | IC50 (read off the curve) [15] [nM] | Binder | hemolysis of rabbit red blood cells, 10% human or cynomolgus serum, IC50 [12] [nM] | inhibition of C3a and C5a generation during hemolysis, IC50 [12] [nM] | other results |
| --- | --- | --- | --- | --- | --- | --- | --- | --- | --- | --- | --- | --- | --- |
|  |  |  |  |  |  |  |  |  |  | MOR9610 Fab format (Fab, V domains shown) VH: EVQLVQSGAEVKKPGSSVKVSCKASGGTFSSYTFSWVRQAPGQGLEWMGNILPIFGDANYAQKFQGRVTITADESTSTAYMELSSLRSEDTAVYYCARNKGAFYYMSTYPSLDVWGQGTLVTVSS VL: DIQMTQSPSSLSASVGDRVTITCRASQNINYYLNWYQQKPGKAPKLLIYDAFSLQSGVPSRFSGSGSGTDFTLTISSLQPEDFATYYCQQSIAVPPFTFGQGTKVEIK |  |  | binding result (human C5): no binding; C3a (nM), human, inhibition of C3a generation [1]: 66 nM; C3b Dep (nM), human serum, IC50 [1]: 20 nM; C5a (nM), human, inhibition of C5a generation [1]: 34 nM; HA (nM), 10% human serum, IC50 [1]: 63 nM; MAC Dep (nM), human serum, IC50 [1]: 4 nM; C3b Dep (nM), cyno serum, IC50 [2]: 39 nM; HA (nM), 10% cyno serum, IC50 [2]: 64 nM; MAC Dep (nM), cyno serum, IC50 [2]: 18 nM; Kd [3]: 0.018 nM; Kd [4]: 0.006 nM; Kd [5]: 0.114 nM; Kd [6]: 0.07 nM; binding result (human C3d [7]): no binding |
| no binding (tested: 100 nM) | ~0.02 | ≤ 5 | 0.00288 | 1.02e-06 | 353000 | 0.202 | 0.00029 | 1.45e+06 | ~0.05 | MOR09675 IgG (antibody, V domains shown, Germlined human IgG1 with leucines 234 and 235 changed to alanines, kappa; also called antibody 9675) VH: EVQLVQSGAEVKKPGASVKVSCKASGYTFTGYYINWVRQAPGQGLEWMGIISPNQGTTGYAQKFQGRVTMTRDTSISTAYMELSSLRSEDTAVYYCARGNYDHLDYWGQGTLVTVSS VL: DIQMTQSPSSLSASVGDRVTITCRASQGISNYLNWYQQKPGKAPKLLIYDASTLQSGVPSRFSGSGSGTDFTLTISSLQPEDFATYYCQQDWHTLPVTFGQGTKVEIKR | ≤ 50 | ≤ 50 | EC50 [9]: 2360 nM; fold binding selectivity for C3b over C3 [10]: > 1000 fold |
| no binding (tested: 100 nM) | ~0.04 | ≤ 5 | 0.0001 | 3.21e-07 | 3.21e+06 | 0.0102 | 4.67e-05 | 4.57e+06 | ~0.05 | MOR09556 IgG (antibody, V domains shown, Germlined human IgG1 with leucines 234 and 235 changed to alanines, kappa; also called antibody 9556) VH: EVQLVESGGGLVQPGGSLRLSCAASGFTFSSYWMTWVRQAPGKGLEWVSSIKIKPDGYAASVKGRFTISRDNSKNTLYLQMNSLRAEDTAVYYCARLFYQYFARMDYWGQGTLVTVSS VL: DIQMTQSPSSLSASVGDRVTITCRASQDISNYLNWYQQKPGKAPKLLIYAASNLQSGVPSRFSGSGSGTDFTLTISSLQPEDFATYYCQQYDSYSPTFGQGTKVEIKR | ≤ 50 | ≤ 50 | fold binding selectivity for C3b over C3 [16]: 1000 fold; EC50 [17]: 300 nM; EC50 (read off the curve) [18]: ~0.08 nM |
